Experiments:
[1] = biological target: CAP in the brain inhibitory fraction (CAP1 and CAP2 of mouse brain) (mouse (endogenous in brain))
[2] = biological target: co-expressed CAP1-GFP/CAP2-GFP (human) (UniProt Q01518); assay: co-purification
[3] = biological target: human CAP1 with C-terminal GFP and Strep-tag II (human) (UniProt Q01518); assay: co-purification
[4] = biological target: human CAP2 with C-terminal GFP and Strep-tag II (human) (UniProt P40123); assay: co-purification
[5] = biological target: GFP-Strep-tagged human INF2-nonCAAX full-length, purified (human)
[6] = biological target: INF2-Cterm labeled with tetramethylrhodamine (human) (UniProt Q27J81); assay: fluorescence polarisation
[7] = biological target: human INF2-nonCAAX full-length, untagged (human); assay: AUC

untagged CAP co-purifying with CAP-GFP (likely endogenous HEK293 CAP), sequence (Q01518 whole entry): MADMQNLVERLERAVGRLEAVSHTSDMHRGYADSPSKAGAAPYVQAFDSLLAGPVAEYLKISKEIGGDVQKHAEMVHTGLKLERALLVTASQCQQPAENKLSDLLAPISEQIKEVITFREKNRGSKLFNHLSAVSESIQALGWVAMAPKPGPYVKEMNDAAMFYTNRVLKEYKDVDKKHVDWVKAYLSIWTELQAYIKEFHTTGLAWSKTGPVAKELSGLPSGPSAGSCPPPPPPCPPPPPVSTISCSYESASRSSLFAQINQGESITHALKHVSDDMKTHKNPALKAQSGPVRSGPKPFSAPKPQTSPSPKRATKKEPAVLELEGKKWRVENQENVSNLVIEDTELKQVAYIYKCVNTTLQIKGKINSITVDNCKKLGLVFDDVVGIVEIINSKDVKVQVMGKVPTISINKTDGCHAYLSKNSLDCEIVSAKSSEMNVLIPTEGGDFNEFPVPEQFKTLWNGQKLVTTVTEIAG
human CAP2 with C-terminal GFP and Strep-tag II (human), sequence (P40123 whole entry): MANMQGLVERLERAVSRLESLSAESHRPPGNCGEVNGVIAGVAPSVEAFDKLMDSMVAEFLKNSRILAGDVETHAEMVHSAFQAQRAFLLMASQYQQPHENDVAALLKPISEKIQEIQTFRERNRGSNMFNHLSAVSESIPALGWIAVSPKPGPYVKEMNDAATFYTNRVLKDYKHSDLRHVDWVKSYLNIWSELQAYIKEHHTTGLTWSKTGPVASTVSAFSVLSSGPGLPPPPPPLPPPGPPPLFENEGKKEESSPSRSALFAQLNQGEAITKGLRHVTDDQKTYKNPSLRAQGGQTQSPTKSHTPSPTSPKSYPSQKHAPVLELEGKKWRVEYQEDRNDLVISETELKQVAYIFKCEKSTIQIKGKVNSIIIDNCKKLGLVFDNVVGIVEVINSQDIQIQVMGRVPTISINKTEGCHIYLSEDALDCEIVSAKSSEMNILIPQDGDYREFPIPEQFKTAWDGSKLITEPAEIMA
human CAP1 with C-terminal GFP and Strep-tag II (human), sequence (Q01518 whole entry): as the sequence (Q01518 whole entry) above
co-expressed CAP1-GFP/CAP2-GFP (human), sequence (Q01518 whole entry, chain 1 of 2): as the sequence (Q01518 whole entry) above
co-expressed CAP1-GFP/CAP2-GFP (human), sequence (P40123 whole entry, chain 2 of 2, further chain): as the sequence (P40123 whole entry) above

Row | mole percentage compared to CAP-GFP [2] [%] | mole percentage compared to CAP-GFP [3] [%] | mole percentage compared to CAP-GFP [4] [%] | Substance | also measured
1 | – | – | – | mouse brain actin (from UniProt P60710 1-375) (natural protein) | mole percentage compared to CAP [1]: 107%
2 | 16.5 | 16.8 | 16.3 | untagged CAP co-purifying with CAP-GFP (likely endogenous HEK293 CAP) (from UniProt Q01518 1-475) (natural protein) | –
3 | – | – | – | untagged CAP2/actin complex purified from tubastatin A-treated 293 cells (from UniProt P40123;P60709) | IC50 of inhibition of INF2-mediated actin polymerization, pyrene-actin assay [5]: 263 nM; Kd [6]: 1820 nM
4 | – | – | – | human INF2-nonCAAX full-length, untagged (natural protein) | stoichiometry N [7]: 2
5 | 90.5 | 82.5 | 88.1 | actin of HEK293 cells co-purifying with recombinant CAP (from UniProt P60709 1-375) (natural protein) | –

Source: PMC6501848
